Experimental data published in the supplement of paper PMC11865577.

How the values were obtained:
Test in all cases: pull-down binding Z-score (relative to library population); higher = stronger binding
Settings in all cases: RNA library: Library-2
[1] = system: TO-3-N3-2 (biotin conjugate)
In short: (§1)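 Heat-folded RNA library (1 μg, Cy5 or Cy3 end label, phosphate/NaCl/KCl buffer) was captured for 60 min at 25 °C on streptavidin beads displaying 100 pmol of biotin-conjugated small molecule, then washed three times. The bound fraction, eluted in hot SDS, was hybridised to a DNA barcode microarray at 55.5 °C for 20 h. Z-scores for binding were taken against the library mean and standard deviation after beads-only subtraction and trimmed averaging of replicate barcoded probes.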

[2] = system: TO-3-N3 (biotin conjugate)
In short: as §1

TO-N3 (biotin conjugate) = system: TO-N3 (biotin conjugate)
In short: as §1

[3] = system: TO-N3-2 (biotin conjugate)
In short: as §1

Sequence | pull-down binding Z-score [1] | pull-down binding Z-score [2] | pull-down binding Z-score (TO-N3 (biotin conjugate)) | pull-down binding Z-score [3]
GGGUAGGGUUUGGGGGAGAGCGUGGGCUGGGGUUCAGGGACA [pre-miRNA-1229_WT_FL] | 8.09 | 7.43 | 6.62 | 5.13
GGGUAGGGUUUGGGGGAGAGUGUGGGCUGGGGUUCAGGGACA [pre-miRNA-1229_SNP_FL] | 7.5 | 6.68 | 6.27 | 4.79
GGGUAGUGGUGAGCAUUGACC [IAV_invivo_PB2_1_Motif_22+IAV_invivo_PB2_1_Motif_22] | 0.601 | 1.17 | 1.28 | 0.804
GGGUCGGUUGCUCACAAGUCCUGCCUGCCUGCCU [IAV_invivo_NP_5_Motif_15+IAV_invivo_NP_5_Motif_15] | 0.184 | 0.283 | 0.865 | 1.7
GGGUGGGUGGGUGGGUGGGUGGGU [G4_r(GGGU)6] | 10.9 | 9.01 | 7.43 | 5.53
GGGUGGGUGGGUGGGUGGGUGGGUGGGUGGGU [G4_r(GGGU)8] | 10.2 | 9.08 | 7.37 | 5.15
GGGUUGGGUUGGGUUGGGUUGGGUUGGGUU [G4_r(GGGUU)6] | 10.1 | 7.99 | 6.75 | 5.08
GGGUUGGGUUGGGUUGGGUUGGGUUGGGUUGGGUUGGGUU [G4_r(GGGUU)8] | 10.2 | 8.9 | 7.46 | 5.93
GGGUUUACAAACAAUUUGAUACUUAUAACCU [DMSMaPseq_invitro_SARS-CoV-2_Motif_347] | -0.105 | -0.652 | -0.828 | -1.11
GGUAAAAUUGUUAAUAAUUGGUUGAAGCAGUUAAUUAAAGUUACACUUGUGUUCCUUUUUGUUGCUGCUAUUUUCUAUUUAAUAACACC [DMSMaPseq_invitro_SARS-CoV-2_Motif_156] | -0.271 | -0.485 | -0.828 | -1.04
GGUAAUUAUACAGUUUCCUGUUUACC [DMSMaPseq_invitro_SARS-CoV-2_Motif_504] | -0.713 | -0.536 | -1.05 | -0.867
GGUAAUUAUACAGUUUCCUGUUUACCUUUUACAAUUAAUUGCC [SHAPE_invitro_SARS-CoV-2_Motif_513] | 0.0742 | -0.718 | -1.04 | -1.1
GGUACAACAACUUACAAAUUAAAUGUUGGUGAUUAUUUUGUGCU [SHAPE_invivo_SARS-CoV-2_Motif_319] | -0.134 | -0.537 | -0.509 | -0.524
GGUACAUUUACUUGUGCU [SHAPE_invivo_SARS-CoV-2_Motif_118] | -0.344 | 0.677 | 0.678 | -0.222
GGUACGUUAAUAGUUAAUAGCGUACUUCUUUUUCUUGCUUUCGUGGUAUUCUUGCUAGUUACACUAGCCAUCCUUACUGCGCUUCGAUUGUGUGCGUACU | -0.0614 | 0.654 | 0.41 | -0.294
GGUCAAAUCAAUGAUAUGAUUUUAUC | -0.505 | -0.859 | -1.26 | -1.3
GGUCAGAAUGAUC [IAV_invivo_NP_5_Motif_12+IAV_invivo_NP_5_Motif_12] | -0.0405 | -0.394 | -0.601 | -0.437
GGUCCAGAACAAACCCAAGGAAAUUUUGGGGACC | 0.197 | 0.213 | 0.0164 | -0.00332
GGUCCAGCAACAGCUCAAAUGGCC [IAV_invivo_PB1_2_Motif_29+IAV_invivo_PB1_2_Motif_29] | -0.356 | -0.414 | -0.26 | 0.392
GGUCUAUAUGCC [SHAPE_invivo_SARS-CoV-2_Motif_218] | -0.349 | 0.153 | 0.0896 | -0.475
GGUCUCCGACGGAGGCC [IAV_invivo_PB1_2_Motif_32+IAV_invivo_PB1_2_Motif_32] | -0.224 | 0.0169 | -0.183 | -1.15
GGUCUGCAGGACU [IAV_invivo_PA_3_Motif_27+IAV_invivo_PA_3_Motif_27] | -0.237 | 0.0311 | -0.125 | -0.231
GGUGAAGGACGGGUCCAGUAGUUCGCUACUGUUGAGUAGAGUGUGAGCUCC [BabySpinach] | 0.648 | 1.09 | 2.08 | 2.02
GGUGACAACAACC [IAV_invivo_M1_M2_7_Motif_11+IAV_invivo_M1_M2_7_Motif_11] | -0.31 | -0.283 | -0.366 | -0.457
GGUGCUCCCAAGAGGGAAGCU [IAV_invivo_NP_5_Motif_18+IAV_invivo_NP_5_Motif_18] | -0.165 | -0.0194 | 0.405 | 0.775
GGUGGAAUUGGACGAUUCUACAUCCAAAUGUGCACC [IAV_invivo_NP_5_Motif_3+IAV_invivo_NP_5_Motif_3] | -0.333 | -0.714 | -0.779 | -0.454

Sequence | pull-down binding Z-score [1] | pull-down binding Z-score [2] | pull-down binding Z-score (TO-N3 (biotin conjugate)) | pull-down binding Z-score [3]
GGUGGCAAACCUUGUAUCAAAGUAGCCACU [SHAPE_invitro_SARS-CoV-2_Motif_216] | -0.373 | -0.569 | -0.798 | -0.605
GGUGGUAUUGUAGCUAUCGUAGUAACAUGCCUUGCC | -0.0179 | 0.56 | 0.693 | 0.0259
GGUGUGGAUGGCAUGCC [IAV_invivo_NP_5_Motif_17+IAV_invivo_NP_5_Motif_17] | -0.0718 | -0.0853 | -0.121 | 0.0568
GGUGUUGCAGGAGCCUUAAAUAAGGCUACUAACAAUGCC [SHAPE_invivo_SARS-CoV-2_Motif_68] | -0.474 | -0.697 | -0.882 | -1.05
GGUGUUGUUGGAGAAGGUUCCGAAGGUCUUAAUGACAACCUUCUUGAAAUACUCC | 0.0401 | 0.245 | 0.261 | 0.062
GGUGUUUAUUACC | -0.382 | -0.454 | -0.968 | -0.855
GGUGUUUUAACU | -0.285 | -0.133 | -0.303 | -0.847
GGUGUUUUAACUGCUGUGGUUAUACCUACUAAAAAGGCUGGUGGCACUACUGAAAUGCU | -0.12 | -0.83 | -0.521 | -0.153
GGUUAUAAGAAACC | -0.849 | -0.083 | -0.351 | -0.964
GGUUCAACUCUCCCUAGGAGGUCUGGAGCC [IAV_invivo_NP_5_Motif_11+IAV_invivo_NP_5_Motif_11] | -0.309 | -0.418 | -0.225 | 0.0598
GGUUCACUAUAUGUUAAACCAGGUGGAACC | 0.221 | 0.612 | 0.506 | -0.369
GGUUCGUGUCUUUAGCUAUAGAUGCUUACC | 0.206 | 0.877 | 0.913 | -0.066
GGUUGGGAAAUUGUUAAAUUUAUCUCAACC | -0.155 | -0.472 | -0.616 | -0.802
GGUUGGGAGAAGAGCAACAGCC [IAV_invivo_PB2_1_Motif_16+IAV_invivo_PB2_1_Motif_16] | 0.479 | 0.351 | 0.776 | 1.09
GGUUGUAUGGUACAAGUAACUUGUGGUACAACU | -0.128 | -0.51 | -0.61 | -0.264
GGUUUAACUUCUAUUAAAUGGGCAGAUAACAACUGUUAUCUUGCCACUGCAUUGUUAACACUCCAACAAAUAGAGUUGAAGUUUAAUCC | -0.273 | -0.726 | -0.793 | -0.63
GGUUUAGCUGCUGUUAAUAGUGUCCCUUGGGAUACUAUAGCUAAUUAUGCUAAGCC | -0.323 | 0.621 | 0.141 | -0.225
GGUUUAUACCUUCCCAGGUAACAAACC | -0.582 | -0.697 | -0.928 | -1.05
GGUUUGUUACAGACACACC [SHAPE_invivo_SARS-CoV-2_Motif_243] | -0.488 | -0.427 | -0.748 | -0.785
GGUUUGUUGCC [IAV_invivo_PB1_2_Motif_26+IAV_invivo_PB1_2_Motif_26] | -0.261 | 0.00909 | -0.146 | -0.374
GGUUUUAUAGCUGGCUUGAUUGCCAUAGUAAUGGUGACAAUUAUGCUUUGCUGUAUGACC | -0.541 | -0.96 | -0.717 | -0.582
GUAAAUUUACUUAC [DMSMaPseq_invitro_SARS-CoV-2_Motif_170] | -0.105 | 0.655 | 0.563 | -0.635
GUAAGAGAAUUCCUUAC | -0.0559 | -0.366 | -0.531 | -0.727
GUAAUGAUCCAUUUUUGGGUGUUUAUUAC [DMSMaPseq_invitro_SARS-CoV-2_Motif_387] | -0.129 | -0.1 | -0.308 | -0.998
GUACAUACAGCUAAUAAAUGGGAUCUCAUUAUUAGUGAUAUGUAC | -0.167 | -0.823 | -0.621 | 0.426
GUACAUGGGCACACUUUCUUAUGAACAAUUUAAGAAAGGUGUUCAGAUAC [DMSMaPseq_invitro_SARS-CoV-2_Motif_106] | 0.0305 | -0.377 | -0.353 | -0.639
